Experimental data published in patent publication US20220177587A1, “METHODS AND USES OF VARIANT CD80 FUSION PROTEINS AND RELATED CONSTRUCTS” (Alpine Immune Sciences, Inc., priority 2018, published 2022).

Legend:
[1] = target: PD-L1 (human) (UniProt Q9NZQ7); assay: flow cytometry, CHO cells expressing huPD-L1
[2] = target: human CTLA-4 (human) (UniProt P16410); assay: flow cytometry, CHO cells expressing huCTLA-4
[3] = target: CD28 (human) (UniProt P10747); assay: flow cytometry, Jurkat/IL2 reporter cells (CD28)
[4] = target: human CTLA-4 (huCTLA4), on stably transduced CHO cells (human) (UniProt P16410); assay: flow cytometry on CHO cells stably expressing huCTLA4, 33.3 nM Fc fusion, PE anti-human Fc
[5] = target: CD28, endogenously expressed on Jurkat/IL2 reporter cells (human) (UniProt P10747); assay: flow cytometry on Jurkat/IL2 reporter cells (endogenous CD28), 33.3 nM Fc fusion, PE anti-human Fc
[6] = target: human PD-L1 (huPD-L1), on stably transduced CHO cells (human) (UniProt Q9NZQ7); assay: flow cytometry on CHO cells stably expressing huPD-L1, 33.3 nM Fc fusion, PE anti-human Fc
[7] = target: CD28 (human) (UniProt P10747)
[8] = target: CD28 (human) (UniProt P10747); assay: flow cytometry, Jurkat cells (CD28)
[9] = target: human CTLA-4 (human) (UniProt P16410); assay: flow cytometry, CHO cells stably expressing CTLA4
[10] = target: PD-L1 (human) (UniProt Q9NZQ7); assay: flow cytometry, CHO cells stably expressing PD-L1
Target sequence in this assay (Q9NZQ7 19-290): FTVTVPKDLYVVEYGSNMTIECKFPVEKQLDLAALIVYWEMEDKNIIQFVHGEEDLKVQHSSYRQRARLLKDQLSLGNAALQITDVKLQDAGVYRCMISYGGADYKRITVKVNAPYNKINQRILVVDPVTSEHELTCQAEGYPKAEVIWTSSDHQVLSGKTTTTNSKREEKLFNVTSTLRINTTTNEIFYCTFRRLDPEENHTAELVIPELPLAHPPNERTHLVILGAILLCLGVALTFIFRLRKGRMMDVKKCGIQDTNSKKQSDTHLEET

[11] = target: PD-L1 (human) (UniProt Q9NZQ7); assay: flow cytometry, MFI on PD-L1 cells over MFI on CD28 cells
Target sequence in this assay (Q9NZQ7 19-290): as above

[12] = target: CD28 (human) (UniProt P10747); remark: listed apart in the source

Sequence of human CTLA-4 (human) (P16410 36-223): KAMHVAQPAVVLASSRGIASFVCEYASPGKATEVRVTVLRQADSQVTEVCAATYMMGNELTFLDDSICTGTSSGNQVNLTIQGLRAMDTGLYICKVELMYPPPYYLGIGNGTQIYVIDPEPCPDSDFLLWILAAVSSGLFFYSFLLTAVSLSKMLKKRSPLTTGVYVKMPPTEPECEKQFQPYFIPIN
Sequence of human CTLA-4 (huCTLA4), on stably transduced CHO cells (human) (P16410 36-223): as above

**Q.** Which results are given for variant CD80 IgV-Fc K89N (Fc fusion)?
**A.** MFI at 33.3 nM [1]: 52.8 MFI; MFI at 33.3 nM [2]: 944 MFI; MFI at 33.3 nM [3]: 56.3 MFI

**Q.** How did the MFI at 33.3 nM [1] turn out when “variant CD80 IgV-Fc M47V/N48K (Fc fusion)” was run?
**A.** The MFI at 33.3 nM was 3080 MFI.

**Q.** What about the MFI at 33.3 nM [2] of the same substance?
**A.** The MFI at 33.3 nM was 44600 MFI.

**Q.** What about the MFI at 33.3 nM [3] of the same substance?
**A.** The MFI at 33.3 nM was 413 MFI.

**Q.** Which MFI at 33.3 nM [4] does the source give for “variant CD80 IgV-Fc M43I/M47L/A71G (Fc fusion)” here?
**A.** The MFI at 33.3 nM was 23300 MFI.

**Q.** And the MFI at 33.3 nM [5]?
**A.** Its MFI at 33.3 nM is 1000 MFI.

**Q.** What about the MFI at 33.3 nM [6] of the same substance?
**A.** Its MFI at 33.3 nM is 7760 MFI.

**Q.** Which IL-2 release, primary T cells + K562/OKT3 (No PD-L1), 100 nM [7] does the source give for WT CD80 ECD-Fc (effector) (Fc fusion) here?
**A.** Its IL-2 release, primary T cells + K562/OKT3 (No PD-L1), 100 nM is 23100.

**Q.** What about the IL-2 release, primary T cells + K562/OKT3/PD-L1, 100 nM [7] of the same substance?
**A.** The IL-2 release, primary T cells + K562/OKT3/PD-L1, 100 nM was 8390.

**Q.** Which MFI at 33.3 nM [1] does the source give for variant CD80 IgV-Fc L85Q (Fc fusion) here?
**A.** Its MFI at 33.3 nM is 97 MFI.

**Q.** And the MFI at 33.3 nM [2]?
**A.** The MFI at 33.3 nM was 3000 MFI.

**Q.** What about the MFI at 33.3 nM [3] of the same substance?
**A.** Its MFI at 33.3 nM is 35 MFI.

**Q.** Which results are given for “variant CD80 IgV-Fc H18Y/A26E/M47L/A71G/D90G (Fc fusion)”?
**A.** Fold change to WT CD80 [8]: 46.6 fold; MFI at 33.3 nM [8]: 2050 MFI; Fold change to WT CD80 [9]: 18.7 fold; MFI at 33.3 nM [9]: 25400 MFI; Fold change to WT CD80 [10]: 407 fold; MFI at 33.3 nM [10]: 17700 MFI; Ratio of PDL1:CD28 [11]: 8.7

**Q.** With variant CD80 IgV-Fc N48K (Fc fusion) as the substance, how does the MFI at 33.3 nM [1] read?
**A.** Its MFI at 33.3 nM is 481 MFI.

**Q.** What about the MFI at 33.3 nM [2] of the same substance?
**A.** The MFI at 33.3 nM was 4950 MFI.

**Q.** And the MFI at 33.3 nM [3]?
**A.** Its MFI at 33.3 nM is 60.1 MFI.

**Q.** What does the source list for “variant CD80 IgV-Fc E35D/M43I/D46E/A71G/L85M (Fc fusion)”?
**A.** MFI at 33.3 nM [4]: 26900 MFI; MFI at 33.3 nM [6]: 7140 MFI

**Q.** “variant CD80 IgV-Fc H18Y/E35D/M47L/V68M/A71G/D90G (Fc fusion)” was tested. Which Fold change to WT CD80 [8] did it give?
**A.** The Fold change to WT CD80 was 63.6 fold.

**Q.** And the MFI at 33.3 nM [8]?
**A.** Its MFI at 33.3 nM is 2790 MFI.

**Q.** What about the Fold change to WT CD80 [9] of the same substance?
**A.** The Fold change to WT CD80 was 14.6 fold.

**Q.** What about the MFI at 33.3 nM [9] of the same substance?
**A.** Its MFI at 33.3 nM is 19900 MFI.

**Q.** And the Fold change to WT CD80 [10]?
**A.** Its Fold change to WT CD80 is 687 fold.

**Q.** What about the MFI at 33.3 nM [10] of the same substance?
**A.** Its MFI at 33.3 nM is 29900 MFI.

**Q.** And the Ratio of PDL1:CD28 [11]?
**A.** The Ratio of PDL1:CD28 was 10.7.

**Q.** For “variant CD80 IgV-Fc V68M/L85Q (Fc fusion)”, which MFI at 33.3 nM [1] is on record?
**A.** Its MFI at 33.3 nM is 347 MFI.

**Q.** What about the MFI at 33.3 nM [2] of the same substance?
**A.** The MFI at 33.3 nM was 3290 MFI.

**Q.** And the MFI at 33.3 nM [3]?
**A.** Its MFI at 33.3 nM is 91.7 MFI.

**Q.** Which MFI at 33.3 nM [4] does the source give for “variant CD80 IgV-Fc E35D/M47I/N48K/I61F (Fc fusion)” here?
**A.** Its MFI at 33.3 nM is 25900 MFI.

**Q.** And the MFI at 33.3 nM [5]?
**A.** Its MFI at 33.3 nM is 816 MFI.

**Q.** And the MFI at 33.3 nM [6]?
**A.** The MFI at 33.3 nM was 5630 MFI.

**Q.** Which results are given for “variant CD80 IgV-Fc M47V/K89N (Fc fusion)”?
**A.** MFI at 33.3 nM [1]: 622 MFI; MFI at 33.3 nM [2]: 32400 MFI; MFI at 33.3 nM [3]: 197 MFI

**Q.** Which results are given for “variant CD80 IgV-Fc E35D/M43I/M47L/L85M (Fc fusion)”?
**A.** MFI at 33.3 nM [4]: 24600 MFI; MFI at 33.3 nM [6]: 4880 MFI

**Q.** “variant CD80 IgV-Fc N48K/K89N (Fc fusion)” was tested. Which MFI at 33.3 nM [2] did it give?
**A.** Its MFI at 33.3 nM is 4370 MFI.

**Q.** And the MFI at 33.3 nM [3]?
**A.** Its MFI at 33.3 nM is 170 MFI.

**Q.** “CD80 E35D/M43L/L70M IgV-Fc (inert) (Fc fusion)” was tested. Which Jurkat/IL2 reporter RLU at 50 nM, CHO/OKT3 aAPC without PD-L1 [12] did it give?
**A.** The Jurkat/IL2 reporter RLU at 50 nM, CHO/OKT3 aAPC without PD-L1 was 515 RLU.

**Q.** “variant CD80 IgV-Fc E35D/N48K/V68M/K89N (Fc fusion)” was tested. Which MFI at 33.3 nM [1] did it give?
**A.** The MFI at 33.3 nM was 17400 MFI.

**Q.** And the MFI at 33.3 nM [3]?
**A.** The MFI at 33.3 nM was 1530 MFI.

**Q.** Which results are given for “variant CD80 IgV-Fc H18Y/A26E/M47L/V68M/A71G (Fc fusion)”?
**A.** Fold change to WT CD80 [8]: 12.4 fold; MFI at 33.3 nM [8]: 544 MFI; Fold change to WT CD80 [9]: 16 fold; MFI at 33.3 nM [9]: 21700 MFI; Fold change to WT CD80 [10]: 682 fold; MFI at 33.3 nM [10]: 29700 MFI; Ratio of PDL1:CD28 [11]: 54.7

**Q.** Which MFI at 33.3 nM [5] does the source give for WT CD80 ECD-Fc H22.6 (Fc fusion) here?
**A.** Its MFI at 33.3 nM is 43 MFI.

**Q.** And the MFI at 33.3 nM [6]?
**A.** Its MFI at 33.3 nM is 46.3 MFI.

**Q.** For “variant CD80 IgV-Fc E35D/D46E/A91G (Fc fusion)”, which MFI at 33.3 nM [4] is on record?
**A.** The MFI at 33.3 nM was 32200 MFI.

**Q.** And the MFI at 33.3 nM [5]?
**A.** The MFI at 33.3 nM was 3450 MFI.

**Q.** And the MFI at 33.3 nM [6]?
**A.** The MFI at 33.3 nM was 2820 MFI.

**Q.** For “variant CD80 IgV-Fc E35D/M47V/N48K/L85M (Fc fusion)”, which MFI at 33.3 nM [5] is on record?
**A.** Its MFI at 33.3 nM is 413 MFI.

**Q.** What about the MFI at 33.3 nM [6] of the same substance?
**A.** The MFI at 33.3 nM was 5660 MFI.

**Q.** “WT CD80 ECD-Fc (Abcam) (from UniProt P33681) (Fc fusion)” was tested. Which MFI at 33.3 nM [1] did it give?
**A.** The MFI at 33.3 nM was 128 MFI.

**Q.** And the MFI at 33.3 nM [3]?
**A.** Its MFI at 33.3 nM is 709 MFI.

**Q.** For WT CD80 IgV-Fc (effector) (Fc fusion), which IL-2 release, primary T cells + K562/OKT3 (No PD-L1), 100 nM [7] is on record?
**A.** Its IL-2 release, primary T cells + K562/OKT3 (No PD-L1), 100 nM is 6200.
